# Source: patent US20260274955A1 (JANUX THERAPEUTICS, published 2026)
# Key:
# [1] = biological target: T1, anti-CD28 Fab (SEQ ID NOs: 202, 203); experiment: phage binding ELISA; biotinylated Fab on neutravidin plate;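 further: clonal phage supernatants added to Fab wells pretreated with CD28 antigen or with blocking buffer only, bound phage read out via HRP-linked anti-M13 antibody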
# T1 construct: biotinylated and captured on neutravidin coated plates in the phage ELISA
# T1 sequence (VH, as listed by the source, chain 1 of 2): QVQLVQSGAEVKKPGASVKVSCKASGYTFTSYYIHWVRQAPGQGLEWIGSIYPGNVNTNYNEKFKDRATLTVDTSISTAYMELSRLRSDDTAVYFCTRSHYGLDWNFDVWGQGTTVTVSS
# T1 sequence (VL, as listed by the source, chain 2 of 2): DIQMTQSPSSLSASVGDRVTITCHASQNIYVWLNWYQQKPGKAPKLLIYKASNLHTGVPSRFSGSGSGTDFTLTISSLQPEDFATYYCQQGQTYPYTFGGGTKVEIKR
# Description: (§1) Clonal phage were harvested as crude supernatants and screened via standard ELISAs. […] Prior to the addition of clonal phage, wells were incubated with blocking buffer and CD28 antigen or blocking buffer alone. Without washing or aspirating, clonal phage supernatants were then added to the wells and incubated for a short time. Wells were then washed followed by detection of bound phage using a horse radish conjugated anti-M13 antibody.
# [2] = biological target: T1, anti-CD28 Fab (SEQ ID NOs: 202, 203); experiment: phage binding ELISA; Fab wells pre-incubated with CD28 antigen (competitor);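 further: clonal phage supernatants added to wells preincubated with CD28 antigen in blocking buffer versus blocking buffer alone, washed, bound phage read by HRP-conjugated anti-M13 antibody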
# Description: as §1
# [3] = biological target: T2, anti-CD28 Fab (SEQ ID NOs: 202, 203); experiment: phage ELISA on captured Fab;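 further: ELISA with clonal phage supernatants added to wells preincubated with CD28 antigen or with blocking buffer only, bound phage detected by HRP-conjugated anti-M13 antibody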
# T2 construct: biotinylated and captured on neutravidin coated plates in the phage ELISA
# T2 sequence (VH, as listed by the source, chain 1 of 2): as the sequence (VH, as listed by the source, chain 1 of 2) above
# T2 sequence (VL, as listed by the source, chain 2 of 2): as the sequence (VL, as listed by the source, chain 2 of 2) above
# Description: as §1
# [4] = biological target: T2, anti-CD28 Fab (SEQ ID NOs: 202, 203); experiment: phage ELISA on captured Fab, wells pre-incubated with CD28 antigen (competitor);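 further: clonal phage ELISA with wells pretreated with CD28 plus blocking buffer before phage addition, bound phage detected by HRP-linked anti-M13 antibody, reference wells got blocking buffer only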
# Description: as §1
# [5] = biological target: anti-CD28 Fab (SEQ ID NOs: 202, 203); experiment: phage ELISA, Fab on plate;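 further: ELISA of crude clonal phage supernatants on the plate, wells preloaded with CD28 antigen or only blocking buffer, captured phage read out via HRP-linked anti-M13 antibody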
# Target sequence in this assay (VH, as listed by the source, chain 1 of 2): as the sequence (VH, as listed by the source, chain 1 of 2) above
# Target sequence in this assay (VL, as listed by the source, chain 2 of 2): as the sequence (VL, as listed by the source, chain 2 of 2) above
Binder,"Anti-CD28 Fab (SEQ ID NOs: 202, 203) signal [3]",Anti-CD28 Fab signal in the presence of CD28 [4],Anti-CD28 Fab signal [5],further results
YCAGHAPQYMEKCL [Phage-312],–,–,–,"Anti-CD28 Fab (SEQ ID NOs: 202, 203) signal [1]: 1.9; Anti-CD28 Fab signal in the presence of CD28 [2]: 0.08"
YCAGHLPQYIAKCL [Phage-313],–,–,–,"Anti-CD28 Fab (SEQ ID NOs: 202, 203) signal [1]: 1.9; Anti-CD28 Fab signal in the presence of CD28 [2]: 0.09"
"YCDGHLPEYLAKCL (on phage, pIII fusion) [Phage-555]",1.52,0.06,–,–
"YCDGHLAVYMAKCL (on phage, pIII fusion) [Phage-556]",1.52,0.08,–,–
"YCAGHLPVYMDKCL (on phage, pIII fusion) [Phage-557]",1.52,0.08,–,–
"YCEGHSAMYIWKCL (on phage, pIII fusion) [Phage-558]",1.52,0.1,–,–
"YCAGHLEEYMWKCL (on phage, pIII fusion) [Phage-559]",1.51,0.08,–,–
"YCDGHKAEYMQKCL (on phage, pIII fusion) [Phage-565]",1.5,0.06,–,–
"YCSGHLPQYLEKCL (on phage, pIII fusion) [Phage-567]",1.5,0.31,–,–
"YCDGHHKEYLLKCL (on phage, pIII fusion) [Phage-568]",1.49,0.06,–,–
"YCDGHLALHMKKCL (on phage, pIII fusion) [Phage-569]",1.49,0.08,–,–
"YCEGHIMQYMAQCL (on phage, pIII fusion) [Phage-570]",1.49,0.06,–,–
"YCDGHLPIYQAKCL (on phage, pIII fusion) [Phage-571]",1.49,0.1,–,–
"YCDGHSEQYIAKCL (on phage, pIII fusion) [Phage-572]",1.49,0.08,–,–
"YCQGHIEPYLAKCL (on phage, pIII fusion) [Phage-586]",1.46,0.05,–,–
"YCDGHLAIYMWKCL (on phage, pIII fusion) [Phage-587]",1.45,0.09,–,–
"YCDGHAEEYMAKCL (on phage, pIII fusion) [Phage-588]",1.45,0.06,–,–
"YCEGHLPQYMTKCI (on phage, pIII fusion) [Phage-590]",1.44,0.08,–,–
"YCAGHLPQYIQKCL (on phage, pIII fusion) [Phage-591]",1.44,0.07,–,–
"YCEGHLAIYQKKCL (on phage, pIII fusion) [Phage-592]",1.44,0.06,–,–

Binder,"Anti-CD28 Fab (SEQ ID NOs: 202, 203) signal [3]",Anti-CD28 Fab signal in the presence of CD28 [4],Anti-CD28 Fab signal [5],further results
"YCEGHAVEYMAKCL (on phage, pIII fusion) [Phage-593]",1.44,0.07,–,–
"YCEGHSQEYMAKCL (on phage, pIII fusion) [Phage-596]",1.44,0.06,–,–
"YCDGHLPEYMNQCL (on phage, pIII fusion) [Phage-597]",1.44,0.07,–,–
"YCDGHNFQYMEKCL (on phage, pIII fusion) [Phage-598]",1.44,0.06,–,–
TCSAGATYTWPVCF [Phage-1201],–,–,1.13,–
TCSAGATYSWPLCF [Phage-1203],–,–,1.12,–
TCAAGATYSWPSCF [Phage-1204],–,–,1.1,–
SCSAGASLQLSQCF [Phage-1129],–,–,1.41,–
RCSFRFITLAEACV [Phage-1130],–,–,1.41,–
TCSAGAHYPWPICL [Phage-1131],–,–,1.41,–
TCAAGAQFAWPLCL [Phage-1132],–,–,1.41,–
LCSAGFLFQWSTCL [Phage-1133],–,–,1.41,–
RCAAGFHYSWPNCF [Phage-1134],–,–,1.41,–
GCAAGASYPWPACL [Phage-1135],–,–,1.41,–
PCAAGAMWPWPVCL [Phage-1136],–,–,1.41,–
TCSAGATYSWPACL [Phage-1137],–,–,1.41,–
TCAAGASWNWPACE [Phage-1138],–,–,1.41,–
LCAAGAHYSWPACF [Phage-1139],–,–,1.41,–
PCSAGVTYAWLYCV [Phage-1140],–,–,1.41,–
MCAAGAAWAWPLCL [Phage-1141],–,–,1.4,–

Binder,"Anti-CD28 Fab (SEQ ID NOs: 202, 203) signal [3]",Anti-CD28 Fab signal in the presence of CD28 [4],Anti-CD28 Fab signal [5],further results
TCAAGASYPWPLCV [Phage-1142],–,–,1.4,–
LCAAGFMYEWPLCF [Phage-1143],–,–,1.4,–
QCAAGATYPWPVCL [Phage-1200],–,–,1.13,–
TCSAGAHYEWPKCL [Phage-1202],–,–,1.12,–
TCAAGANYAWPVCL [Phage-1205],–,–,1.09,–
TCAAGAHYEWPQCF [Phage-1206],–,–,1.08,–
TCAAGATYNWPWCF [Phage-1207],–,–,1.07,–
TCAAGATWTWPTCM [Phage-1208],–,–,1.07,–
PCAAGAQWSWPMCL [Phage-1209],–,–,1.07,–
SCAAGSTWAWPACL [Phage-1210],–,–,1.07,–
SCAAGFHYEWPQCF [Phage-1211],–,–,1.06,–
SCTAGFRIHWPMCF [Phage-1212],–,–,1.06,–
SCAAGAAYAWPWCL [Phage-1213],–,–,1.05,–
MCTAGFSFNWPECL [Phage-1214],–,–,1.05,–
LCDQFFHYNWPACL [Phage-1215],–,–,1.04,–
SCAAVFSFNWPECF [Phage-1216],–,–,1.01,–
TCSAGASYSWPYCM [Phage-1217],–,–,1,–
WCSEVFSYPWPACL [Phage-1218],–,–,0.99,–
SCTAVFSYALSPCF [Phage-1219],–,–,0.99,–
